B1: ahpC (dsDNA)
DNA 1: TTTGCCTGACAGCGACTTCACGGCACGATG
DNA 2: CATCGTGCCGTGAAGTCGCTGTCAGGCAAA
B2: hisG (dsDNA)
DNA 1: CGCGACCCGCAGCATGCTCACAGCTTTCGA
DNA 2: TCGAAAGCTGTGAGCATGCTGCGGGTCGCG
B3: lpqA (dsDNA)
DNA 1: GCACCTTCACCGCCCGCCCACAGCCACGCA
DNA 2: TGCGTGGCTGTGGGCGGGCGGTGAAGGTGC
B4: DRs3 (3-bp spacer) (dsDNA)
DNA 1: AAGTACCTCACAGCACTTCACAGCTTTCAT
DNA 2: ATGAAAGCTGTGAAGTGCTGTGAGGTACTT
B5: DR (dsDNA)
DNA 1: ACGATTCACAGCTGATTCACAGCATCTACG
DNA 2: CGTAGATGCTGTGAATCAGCTGTGAATCGT

How the values were obtained:
PhoP Y205A = PhoP Y205A (Mycobacterium tuberculosis, UniProt P71814 1-247, Y205A); test: ITC; 5 mM MgCl2; ITC: 20 mM HEPES pH 7.5, 100 mM NaCl, 5 mM MgCl2, 25 C, […]; conditions: protein: recombinant; tags: N-terminal His-tag removed with TEV; chain copies: 2
PhoP L113D = PhoP L113D (Mycobacterium tuberculosis, UniProt P71814 1-247, L113D); test: as above; conditions: protein: recombinant; tags: N-terminal His-tag removed with TEV; chain copies: 2

Binder | Kd (PhoP Y205A) | Kd (PhoP L113D)
B1 | 654 ± 57.2 nM | 595 ± 51.4 nM
B2 | 114 ± 11.2 nM | 117 ± 11.7 nM
B3 | 3080 ± 371 nM | 2870 ± 541 nM
B4 |  | 368 ± 52.2 nM
B5 | 21.8 ± 6.2 nM | 26.2 ± 6.5 nM

Reference: PMC4832192, “Structural basis of DNA sequence recognition by the response regulator PhoP in Mycobacterium tuberculosis”
